Molecular target: Human FGF2 (manufactured by Peprotech Inc.) (human) (UniProt P09038)
Test: cell-based or functional assay

Chain of Human FGF2 (manufactured by Peprotech Inc.) (human) (P09038 135-288 limits assumed): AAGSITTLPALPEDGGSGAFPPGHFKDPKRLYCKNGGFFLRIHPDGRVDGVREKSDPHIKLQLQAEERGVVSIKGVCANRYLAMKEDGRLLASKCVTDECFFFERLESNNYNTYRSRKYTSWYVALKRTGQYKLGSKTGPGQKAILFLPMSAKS

“anti-FGF2 antibody Anti-FGF, basic (Ab-3) Mouse mAb (3H3) (manufactured by Calbiochem)” showed an inhibitory rate (%) of FGF2-dependent growth of HUVEC cells; 3H3 (1 nM) + FGF2 (500 pM) of 8.5%, an inhibitory rate (%) of FGF2-dependent growth of HUVEC cells; 3H3 (5 nM) + FGF2 (500 pM) of 30% and an inhibitory rate (%) of FGF2-dependent growth of HUVEC cells; 3H3 (25 nM) + FGF2 (500 pM) of 100%.

— patent US20170157165A1
